Test results reported in patent US20060067886A1, “Gastrin receptor-avid peptide conjugates” (priority 1997, published 2006).

Assay: Biodistribution of radiometal-DOTA-BBN conjugates in CF1 normal mice
Conditions: 1 hour post-injection

Q: Which results are given for CSCC[C@H](NC(=O)[C@H](CC(C)C)NC(=O)[C@H](Cc1c[nH]cn1)NC(=O)CNC(=O)[C@@H](NC(=O)[C@H](C)NC(=O)[C@H](Cc1c[nH]c2ccccc12)NC(=O)[C@H](CCC(N)=O)NC(=O)CCCCNC(=O)CN1CCN(CC(=O)O)CCN(CC(=O)O)CCN(CC(=O)O)CC1)C(C)C)C(N)=O [111In-DOTA-5-Ava-BBN[7-14]NH2] [metal not drawn]?
A: Avg % ID, Carcass: 3.15 ± 0.70 % ID; Avg % ID, Heart: 0.02 ± 0.01 % ID; Avg % ID, Liver: 0.26 ± 0.03 % ID; Avg % ID, Lung: 0.04 ± 0.01 % ID; Avg % ID, Muscle: 0.01 ± 0.01 % ID; Avg % ID, S. Intestine: 0.11 ± 0.04 % ID; Avg % ID, Spleen: 0.11 ± 0.04 % ID; Avg % ID, Stomach: 0.37 ± 0.16 % ID; Avg % ID/gm, Heart: 0.10 ± 0.04 % ID/gm; Avg % ID/gm, Liver: 0.16 ± 0.02 % ID/gm; Avg % ID/gm, Muscle: 0.05 ± 0.02 % ID/gm; Avg % ID/gm, S. Intestine: 3.49 ± 0.87 % ID/gm; Avg % ID/gm, Spleen: 0.87 ± 0.28 % ID/gm; Avg % ID/gm, Stomach: 0.71 ± 0.24 % ID/gm

Q: For CSCC[C@H](NC(=O)[C@H](CC(C)C)NC(=O)[C@H](Cc1cnc[nH]1)NC(=O)CNC(=O)[C@@H](NC(=O)[C@H](C)NC(=O)[C@H](Cc1c[nH]c2ccccc12)NC(=O)[C@H](CCC(N)=O)NC(=O)CN1CCN(CC(=O)O)CCN(CC(=O)O)CCN(CC(=O)O)CC1)C(C)C)C(N)=O [149Pm-DOTA-0-BBN[7-14]NH2], which “Avg % ID, Blood” value is on record?
A: 0.00 ± 0.00 % ID

Q: What about the “Avg % ID, Carcass” value of the same compound?
A: 1.98 ± 2.27 % ID

Q: What about the “Avg % ID, Heart” value of the same compound?
A: 0.00 ± 0.00 % ID

Q: What about the “Avg % ID, Kidney” value of the same compound?
A: 0.34 ± 0.28 % ID

Q: What about the “Avg % ID, L. Intestine” value of the same compound?
A: 0.01 ± 0.02 % ID

Q: And the “Avg % ID, Liver” value?
A: 0.16 ± 0.15 % ID

Q: What about the “Avg % ID, Lung” value of the same compound?
A: 0.00 ± 0.00 % ID

Q: And the “Avg % ID, Muscle” value?
A: 0.00 ± 0.00 % ID

Q: What about the “Avg % ID, Pancreas” value of the same compound?
A: 0.07 ± 0.01 % ID

Q: And the “Avg % ID, S. Intestine” value?
A: 0.38 ± 0.25 % ID

Q: And the “Avg % ID, Spleen” value?
A: 0.00 ± 0.00 % ID

Q: What about the “Avg % ID, Stomach” value of the same compound?
A: 0.02 ± 0.05 % ID

Q: And the “Avg % ID/gm, Blood” value?
A: 0.00 ± 0.00 % ID/gm

Q: And the “Avg % ID/gm, Heart” value?
A: 0.00 ± 0.00 % ID/gm

Q: And the “Avg % ID/gm, Kidney” value?
A: 1.04 ± 0.90 % ID/gm

Q: And the “Avg % ID/gm, L. Intestine” value?
A: 0.01 ± 0.03 % ID/gm

Q: And the “Avg % ID/gm, Liver” value?
A: 0.12 ± 0.10 % ID/gm

Q: And the “Avg % ID/gm, Lung” value?
A: 0.00 ± 0.00 % ID/gm

Q: And the “Avg % ID/gm, Muscle” value?
A: 0.00 ± 0.00 % ID/gm

Q: And the “Avg % ID/gm, Pancreas” value?
A: 0.00 ± 0.00 % ID/gm

Q: What about the “Avg % ID/gm, S. Intestine” value of the same compound?
A: 0.27 ± 0.17 % ID/gm

Q: And the “Avg % ID/gm, Spleen” value?
A: 0.00 ± 0.00 % ID/gm

Q: What about the “Avg % ID/gm, Stomach” value of the same compound?
A: 0.04 ± 0.08 % ID/gm
